Experimental findings from patent publication US20110200590A1 are described below.

Holding throughout (assay): cell-based or functional assay
The target in assay [1] is Interleukin-10 (IL-10) released by human monocytes (human) (UniProt P22301).
The target in assay [2] is FcRI (CD64), high affinity immunoglobulin gamma Fc receptor I, on human monocytes (human) (UniProt P12314).
Assay [3] deals with anti-MBP (105-120) monoclonal IgM Mab 1, clone DM1A2C1.

Sequence of UniProt P12314 (P12314 16-374 limits assumed, form in doubt): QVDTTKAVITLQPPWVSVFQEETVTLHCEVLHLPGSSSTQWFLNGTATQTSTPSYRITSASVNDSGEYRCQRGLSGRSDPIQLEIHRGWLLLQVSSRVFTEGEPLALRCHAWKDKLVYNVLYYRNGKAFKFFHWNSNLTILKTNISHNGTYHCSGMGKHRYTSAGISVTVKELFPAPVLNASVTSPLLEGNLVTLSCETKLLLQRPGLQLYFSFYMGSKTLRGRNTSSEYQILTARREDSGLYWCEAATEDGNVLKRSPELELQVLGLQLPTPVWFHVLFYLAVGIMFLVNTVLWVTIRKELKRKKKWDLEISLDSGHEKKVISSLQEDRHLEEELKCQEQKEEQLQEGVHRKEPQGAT
Sequence of UniProt P22301 (P22301 19-178 limits assumed): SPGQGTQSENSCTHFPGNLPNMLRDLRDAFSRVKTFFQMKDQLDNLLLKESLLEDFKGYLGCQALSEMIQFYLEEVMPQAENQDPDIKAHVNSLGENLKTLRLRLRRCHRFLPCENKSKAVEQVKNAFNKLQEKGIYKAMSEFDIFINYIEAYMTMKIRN

On to “neutralising monoclonal antibody anti-human IL-10 (R&D Systems)”, for which, in assay [1], the % inhibition of proliferation of human MBP+-T line by Mab 1 in the presence of Mab IL-10 (T + PBM + Mab 1 + Mab IL-10) worked out at 0% and the % inhibition of proliferation of human MBP+-T line by Mab CD64 in the presence of Mab IL-10 (T + PBM + Mab CD64 + Mab IL-10) came to 0%.
With “mouse monoclonal antibody anti-human CD64, IgG1 (Ancell)”, in assay [2], the % inhibition of proliferation of human MBP+-T cells (T + PBM + Mab CD64) was determined as 100%, the % inhibition of proliferation of human MBP+-T line (T + PBM + Mab CD64) is 98%, the Levels of IL-10 in the supernatants of human monocytes (MNC + Mab CD64) came out at 3950 pg/mL and the Levels of IL-10 in the supernatants of human monocytes activated with LPS (MNC + LPS + Mab CD64) is 6360 pg/mL.
Regarding GLQLYFS [peptide 222-228 CD64 (GLQLYFS)], the % inhibition of proliferation of human MBP+-T cells by Mab 1 in the presence of pep 1 (T + PBM + Mab 1 + pep 1) in assay [3] is 0%.
Turning to QFLGSYL [“scrambled” peptide (QFLGSYL Seq ID no 5)], the % inhibition of proliferation of human MBP+-T cells by Mab 1 in the presence of pep 2 (T + PBM + Mab 1 + pep 2) in assay [3] came to 98%.
